Measured values from patent US11015206B2, “Compositions and methods comprising sequences having hydroxyphenylpyruvate dioxygenase (HPPD) activity” (PIONEER HI-BRED INTERNATIONAL, INC., priority 2014, dated 2021).
Changes are numbered by the printed parent chain. In names and notes the source's numbering stands. One block for each molecule: values may come before it.

Experiments:
Format in all cases: biochemical, Z. mays
[1] = system: 4-hydroxyphenylpyruvate dioxygenase (HPPD); assay: HPPD activity coupled assay with HGD; substrate saturation kinetic parameters (kcat, KM); conditions: Table 6; for kcat: single substitutions in SEQ ID NO:2
In short: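 Coupled continuous assay: His-tagged HPPD (5 to 240 nM, E. coli-expressed, Ni-NTA-purified) with 50 nM P. aeruginosa HGD in 25 mM Hepes pH 7, 2 mM ascorbate, 10 μM FeSO4; maleylacetoacetate followed at 320 nm. KM and Vmax from Lineweaver-Burke fits over 3.33–100 μM HPP.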

[2] = system: 4-hydroxyphenylpyruvate dioxygenase (HPPD); assay: OFF rate ratio: release of inhibitor from pre-formed enzyme-inhibitor complex; conditions: Table 5; tembotrione
In short: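 HPPD (7.2 μM) pre-incubated 1 h at RT with inhibitor (8 μM), then diluted into 25 mM Hepes pH 7, 2 mM ascorbate, 10 μM FeSO4, 100 μM HPP, 50 nM HGD; A320 followed 12 min. Ratio = steady-state rate with inhibitor over initial rate of inhibitor-free enzyme.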

[3] = system: 4-hydroxyphenylpyruvate dioxygenase (HPPD); assay: Estimate of kcat from initial rate at saturating hydroxyphenylpyruvate without inhibitor (ON rate ratio assay); conditions: Table 5; single substitutions in Round 7 variant 9070 (SEQ ID NO:2); estimate from initial rate at saturating hydroxyphenylpyruvate without inhibitor
In short: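 Reactions used 60 or 120 nM HPPD and saturating 100 μM hydroxyphenylpyruvate without inhibitor. kcat was estimated from the initial rate at the known enzyme concentration.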

[4] = system: 4-hydroxyphenylpyruvate dioxygenase (HPPD); assay: Insensitivity parameter (ON × OFF) and trait fitness (ON × OFF × kcat/KM or × kcat); conditions: for ON × OFF × kcat, Value / ON × OFF × kcat, Fold vs wt / ON × OFF, fold vs wt / ON × OFF (parameters with tembotrione): Table 5, tembotrione; for ON × OFF × kcat, Fold vs wt / ON × OFF, fold vs wt: fold vs maize wild type HPPD; for ON × OFF (parameters with tembotrione): insensitivity parameter
In short: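 Calculated, not measured directly: ON rate ratio × OFF rate ratio gives an insensitivity parameter serving as a KD surrogate.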

[5] = system: 4-hydroxyphenylpyruvate dioxygenase (HPPD); assay: ON rate ratio: HPPD reaction rate with vs without inhibitor in the 70 to 90 second interval; conditions: Table 5; tembotrione
In short: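 Time courses of HPPD reactions, 60 or 120 nM enzyme with 100 μM HPP substrate, run with and without 4 μM inhibitor (e.g. mesotrione, tembotrione). Value is the rate with inhibitor over rate without, taken over 70–90 s; higher ratio reflects slower kON.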

[6] = DKN (diketonitrile form of isoxaflutole)
[7] = DKN (isoxaflutole diketonitrile)

B1: 432R: single substitution A432R in SEQ ID NO:2 (protein)
chain: MGPTPTATAAGAAVAAASAAEQAAFRLVGHRNFVRFNPRSDRFQTLAFHHVELWCADAASAAGRFSFALGVPLAARSDLSTGNSAHASLLLRSGSLSLLFTAPYAHGADAATAALPSFSAAAARRFAADHGLAVRAVALRVADAEDAFRASVAAGARPAFGPVDLGRGFRLAEVELYGDVVLRYVSYPDGAAGEPFLPGFEGVASPGAADYGLSRFDHIVGNVPELAPAAAYMAGFTGFHEFAEFTTEDVGTTESGLNSMALANNSENVLLPLNEPVHGTKRRSQIQTFLDHHGGPGVQHIALASDDVLRTLREMRARSAMGGFEFLPPPLSDYYDGVRRCAGDVLTEAQINECQELGVMVDRDDQGVLLQIFTKPVGDRPTFFLEIIQRIGCMEKDEKGQEYQKGGCGGFGKGNFGQLFKSIEDYEKSLERKQAAAAATAQGS
modifications: Zea mays variant form created by artificial means.
Km [1]: 1.97 µM | kcat [1]: 0.945 s⁻¹ | OFF ratio (parameters with tembotrione) [2]: 0.20 | kcat [3]: 0.51 s⁻¹ | Insensitivity parameter, ON × OFF [4, 6]: 0.27 | ON × OFF × kcat/km fold vs Round 7, variant 9070 [4, 7]: 2.1 | Insensitivity parameter, ON × OFF ([4]; Mesotrione, Table 6): 0.53 | ON × OFF × kcat/km fold vs Round 7, variant 9070 ([4]; Sulco (sulcotrione)): 1.3 | Insensitivity parameter, ON × OFF ([4]; Sulcotrione): 0.59 | ON × OFF × kcat, Value [4]: 4.75 | ON × OFF × kcat, Fold vs wt [4]: 4.44 | ON × OFF, fold vs wt [4]: 30.4 | ON × OFF (parameters with tembotrione) [4]: 0.16 | Insensitivity parameter, ON × OFF ([4]; Tembotrione): 0.23 | ON × OFF × kcat/km fold vs Round 7, variant 9070 ([4]; Topra (topramezone)): 1.4 | Insensitivity parameter, ON × OFF ([4]; Topramezon): 0.31 | ON × OFF × kcat/km fold vs Round 7, variant 9070 ([4]; meso (mesotrione)): 1.5 | ON × OFF × kcat/km fold vs Round 7, variant 9070 ([4]; tembo (tembotrione)): 1.6 | ON ratio (parameters with tembotrione) [5]: 0.78

B4: 385V: single substitution L385V in SEQ ID NO:2 (protein)
chain: B1 chain with L385V, R432A
modifications: Zea mays variant form created by artificial means.
Km [1]: 1.91 µM | kcat [1]: 0.505 s⁻¹ | OFF ratio (parameters with tembotrione) [2]: 0.33 | kcat [3]: 0.357 s⁻¹ | Insensitivity parameter, ON × OFF [4, 6]: 0.33 | ON × OFF × kcat/km fold vs Round 7, variant 9070 [4, 7]: 1.1 | Insensitivity parameter, ON × OFF ([4]; Mesotrione, Table 6): 0.65 | ON × OFF × kcat/km fold vs Round 7, variant 9070 ([4]; Sulco (sulcotrione)): 1.0 | Insensitivity parameter, ON × OFF ([4]; Sulcotrione): 0.78 | ON × OFF × kcat, Value [4]: 5.26 | ON × OFF × kcat, Fold vs wt [4]: 4.92 | ON × OFF, fold vs wt [4]: 48.2 | ON × OFF (parameters with tembotrione) [4]: 0.25 | Insensitivity parameter, ON × OFF ([4]; Tembotrione): 0.34 | ON × OFF × kcat/km fold vs Round 7, variant 9070 ([4]; Topra (topramezone)): 1.3 | Insensitivity parameter, ON × OFF ([4]; Topramezon): 0.49 | ON × OFF × kcat/km fold vs Round 7, variant 9070 ([4]; meso (mesotrione)): 1.0 | ON × OFF × kcat/km fold vs Round 7, variant 9070 ([4]; tembo (tembotrione)): 1.4 | ON ratio (parameters with tembotrione) [5]: 0.75

B5: 376W: single substitution 376W in SEQ ID NO:2 (protein)
chain: B1 chain with P376W, R432A
modifications: Zea mays variant form created by artificial means.
Km [1]: 5.51 µM | kcat [1]: 0.602 s⁻¹ | OFF ratio (parameters with tembotrione) [2]: 0.34 | kcat [3]: 0.385 s⁻¹ | Insensitivity parameter, ON × OFF [4, 6]: 0.37 | Insensitivity parameter, ON × OFF ([4]; Mesotrione, Table 6): 0.39 | Insensitivity parameter, ON × OFF ([4]; Sulcotrione): 0.16 | ON × OFF × kcat, Value [4]: 5.42 | ON × OFF × kcat, Fold vs wt [4]: 5.07 | ON × OFF, fold vs wt [4]: 46.0 | ON × OFF (parameters with tembotrione) [4]: 0.23 | Insensitivity parameter, ON × OFF ([4]; Tembotrione): 0.31 | Insensitivity parameter, ON × OFF ([4]; Topramezon): 0.32 | ON ratio (parameters with tembotrione) [5]: 0.68

B7: 417Q: single substitution G417Q in SEQ ID NO:2 (protein)
chain: B1 chain with G417Q, R432A
modifications: Zea mays variant form created by artificial means.
Km [1]: 1.56 µM | kcat [1]: 0.558 s⁻¹ | OFF ratio (parameters with tembotrione) [2]: 0.27 | kcat [3]: 0.343 s⁻¹ | Insensitivity parameter, ON × OFF [4, 6]: 0.39 | ON × OFF × kcat/km fold vs Round 7, variant 9070 [4, 7]: 1.0 | Insensitivity parameter, ON × OFF ([4]; Mesotrione, Table 6): 0.73 | ON × OFF × kcat/km fold vs Round 7, variant 9070 ([4]; Sulco (sulcotrione)): 1.2 | Insensitivity parameter, ON × OFF ([4]; Sulcotrione): 0.74 | ON × OFF × kcat, Value [4]: 4.04 | ON × OFF × kcat, Fold vs wt [4]: 3.77 | ON × OFF, fold vs wt [4]: 38.4 | ON × OFF (parameters with tembotrione) [4]: 0.20 | Insensitivity parameter, ON × OFF ([4]; Tembotrione): 0.33 | ON × OFF × kcat/km fold vs Round 7, variant 9070 ([4]; Topra (topramezone)): 1.4 | Insensitivity parameter, ON × OFF ([4]; Topramezon): 0.39 | ON × OFF × kcat/km fold vs Round 7, variant 9070 ([4]; meso (mesotrione)): 1.5 | ON × OFF × kcat/km fold vs Round 7, variant 9070 ([4]; tembo (tembotrione)): 1.5 | ON ratio (parameters with tembotrione) [5]: 0.74

The next lines start with results.

OFF ratio (parameters with tembotrione) [2]: 0.22 | Insensitivity parameter, ON × OFF [4, 6]: 0.34 | Insensitivity parameter, ON × OFF ([4]; Mesotrione, Table 6): 0.51 | Insensitivity parameter, ON × OFF ([4]; Sulcotrione): 0.63 | ON × OFF, fold vs wt [4]: 32.6 | ON × OFF (parameters with tembotrione) [4]: 0.17 | Insensitivity parameter, ON × OFF ([4]; Tembotrione): 0.25 | Insensitivity parameter, ON × OFF ([4]; Topramezon): 0.32 | ON ratio (parameters with tembotrione) [5]: 0.77
B2: 360L: single substitution 360L in SEQ ID NO:2 (protein)
chain: B1 chain with M360L, R432A
modifications: Zea mays variant form created by artificial means.
Km [1]: 1.71 µM | kcat [1]: 0.543 s⁻¹ | kcat [3]: 0.442 s⁻¹ | ON × OFF × kcat, Value [4]: 4.41 | ON × OFF × kcat, Fold vs wt [4]: 4.12

OFF ratio (parameters with tembotrione) [2]: 0.22 | Insensitivity parameter, ON × OFF [4, 6]: 0.32 | Insensitivity parameter, ON × OFF ([4]; Mesotrione, Table 6): 0.51 | Insensitivity parameter, ON × OFF ([4]; Sulcotrione): 0.62 | ON × OFF, fold vs wt [4]: 32.3 | ON × OFF (parameters with tembotrione) [4]: 0.16 | Insensitivity parameter, ON × OFF ([4]; Tembotrione): 0.25 | Insensitivity parameter, ON × OFF ([4]; Topramezon): 0.31 | ON ratio (parameters with tembotrione) [5]: 0.76
B3: 189P: single substitution 189P in SEQ ID NO:2 (protein)
chain: B1 chain with D189P, R432A
modifications: Zea mays variant form created by artificial means.
Km [1]: 3.35 µM | kcat [1]: 0.697 s⁻¹ | kcat [3]: 0.437 s⁻¹ | ON × OFF × kcat, Value [4]: 4.31 | ON × OFF × kcat, Fold vs wt [4]: 4.02

OFF ratio (parameters with tembotrione) [2]: 0.22 | Insensitivity parameter, ON × OFF [4, 6]: 0.29 | Insensitivity parameter, ON × OFF ([4]; Mesotrione, Table 6): 0.45 | Insensitivity parameter, ON × OFF ([4]; Sulcotrione): 0.58 | ON × OFF, fold vs wt [4]: 32.4 | ON × OFF (parameters with tembotrione) [4]: 0.17 | Insensitivity parameter, ON × OFF ([4]; Tembotrione): 0.20 | Insensitivity parameter, ON × OFF ([4]; Topramezon): 0.27 | ON ratio (parameters with tembotrione) [5]: 0.75
B6: 390N: single substitution 390N in SEQ ID NO:2 (protein)
chain: B1 chain with R390N, R432A
modifications: Zea mays variant form created by artificial means.
Km [1]: 2.86 µM | kcat [1]: 0.837 s⁻¹ | kcat [3]: 0.505 s⁻¹ | ON × OFF × kcat, Value [4]: 5.00 | ON × OFF × kcat, Fold vs wt [4]: 4.67
